Source: US20030124121A1 (IMMUNEX, published 2003)
One block for each binder: values may come before it.

Legend:
human IL-4 receptor [1] = target: T1, human IL-4 receptor (human, UniProt P24394 26-232, limits assumed); experiment: hybridoma identification; assay not described
T1 construct: extracellular domain is 1 to 207 or -2 to 207 in that numbering; also called huIL-4R; IL-4Ralpha

human IL-4 receptor [2] = target: T1, human IL-4 receptor; experiment: hybridoma screen for human gamma/kappa specific to IL-4R
Excerpt: The mouse was sacrificed, and spleen cells were extracted and fused with the murine myeloma cell line P3x63Ag8.653 (ATCC CRL 1580). A conventional PEG fusion protocol was followed. The fusion was screened for HuIgG and HuKappa, followed by a rescreen for human gamma and kappa specific to IL-4R. […] Techniques for altering (switching) the subclass/isotype of an antibody are known. […] Sequence information for a human IgG4 heavy chain is presented, for example, in Ellison et al. (DNA Vol. 1, no. 1, pp 11-18, 1981), which is hereby incorporated by reference herein.

human IL-4 receptor [3] = target: T1, human IL-4 receptor; experiment: assay not described

B1: MAb 5A1 (antibody, IgG1, V domains shown)
VH: EVQLVQSGGGLVHPGGSLRLTCAGSGFTFSNFVMHWVRQTPGQGLEWVSAIGTGGGTYYADSVKGRFTISRDNAKSSLYLQMNSLRAEDMAVYYCARDRPMVRGVIIDYFDYWGQGTLVTVSS
VL: EIVLTQSPATLSLSPGERATLSCRASQSVSSYLAWYQQKPGQAPRLLIYHASNRATGIPARFSGSGSGTDFTLTISSLEPEDFAVYYCQQRSNWPLTFGGGTKVEIK
notes: Fully human antibody
binding result (human IL-4 receptor [1]): binds

B2: MAb 27A1 (antibody, IgG1, V domains shown)
VH: QVQLVESGGGVVQPGRSLRLSCSASGFTFSRYGMHWVRQAPGRGLEWVAIIWFEGNNQYYADSVKGRFTVSRDNSKNTLYLEMNSLRAEDTAVYYCARGKYYFDYWGQGTLVTVSS
VL: not shown
notes: Fully human antibody
binding result (human IL-4 receptor [1]): binds

B4: MAb 63 (antibody, IgM, V domains shown)
VH: EVQVLESGGNLVQPGGSLRLSCAASGFTFSSYAMSWVRQAPGKGLEWVSSITGSGGSTYYADSVKGRFTISRDNSKNTLYLQMNSLRAEDTAIFYCAKDNRGFFHYWGQGTLVTVSS
VL: DIQMTQSPSSVSASVGDRVTITCRASQGISTWLAWYQHKPGKAPKLLIYVASSLQSGVPSRFSGSGSGTDFTLTISSLQPEDFATYYCQQANSFPFTFGPGTKVDIK
notes: Fully human antibody
binding result (human IL-4 receptor [1]): binds

Second part, the binder after the results:

binding result (human IL-4 receptor [2]): binds
B3: MAb 12B5 (antibody, human IgG1, V domains shown)
VH: EVQLVQSGGGLVHPGGSLRLSCAGSGFTFSRNAMFWVRQAPGKGLEWVSGIGTGGATNYADSVKGRFTISRDNAKNSLYLQMNSLRAEDMAVYYCARGRYYFDYWGQGTLVTVSS
VL: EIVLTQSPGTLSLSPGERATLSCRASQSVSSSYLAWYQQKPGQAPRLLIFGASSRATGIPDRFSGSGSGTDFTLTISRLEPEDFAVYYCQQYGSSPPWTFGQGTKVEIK
notes: also called clone 12B5

binding result (human IL-4 receptor [3]): binds
B5: MAb 1B7 (antibody, V domains shown)
VH: B4 VH
VL: EIVLTQSPSSVSASVGDRVTITCRASQGISNRLAWYQQKPGKAPKLLIYIASILQRGVPSRFSGSGSGTDFTLTITRLQPEDFATYYCQQANSFPFTFGPGTKVDIK
notes: Derived from MAb 63; differs from it only in the light chain; heavy chain identical to MAb 63
